One block for each molecule: values may come before it.
T1: Nap1 core (residues 75–365) (S. cerevisiae, UniProt P25293 75-365)
T1 chain: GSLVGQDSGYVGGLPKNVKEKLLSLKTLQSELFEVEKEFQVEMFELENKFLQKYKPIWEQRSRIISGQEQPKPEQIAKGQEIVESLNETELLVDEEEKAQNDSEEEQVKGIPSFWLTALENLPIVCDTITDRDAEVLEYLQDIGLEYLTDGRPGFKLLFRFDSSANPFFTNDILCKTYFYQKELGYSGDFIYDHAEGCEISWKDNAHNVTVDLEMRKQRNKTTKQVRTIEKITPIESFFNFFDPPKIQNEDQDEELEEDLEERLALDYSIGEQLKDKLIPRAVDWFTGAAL

T2: MBP-Kap114 (S. cerevisiae, UniProt P53067 1-1004)
T2 construct: TEV site between MBP and Kap114; pMalE modified with a His6-tag immediately N-terminal of MBP and a TEV site after MBP; held on amylose resin in the pull-downs; also called immobilized MBP-Kap114; iK; source: E. coli BL21 Gold, purified (amylose beads, HiTrap Q, SEC); not shown: MBP, N-terminal, kept
T2 sequence: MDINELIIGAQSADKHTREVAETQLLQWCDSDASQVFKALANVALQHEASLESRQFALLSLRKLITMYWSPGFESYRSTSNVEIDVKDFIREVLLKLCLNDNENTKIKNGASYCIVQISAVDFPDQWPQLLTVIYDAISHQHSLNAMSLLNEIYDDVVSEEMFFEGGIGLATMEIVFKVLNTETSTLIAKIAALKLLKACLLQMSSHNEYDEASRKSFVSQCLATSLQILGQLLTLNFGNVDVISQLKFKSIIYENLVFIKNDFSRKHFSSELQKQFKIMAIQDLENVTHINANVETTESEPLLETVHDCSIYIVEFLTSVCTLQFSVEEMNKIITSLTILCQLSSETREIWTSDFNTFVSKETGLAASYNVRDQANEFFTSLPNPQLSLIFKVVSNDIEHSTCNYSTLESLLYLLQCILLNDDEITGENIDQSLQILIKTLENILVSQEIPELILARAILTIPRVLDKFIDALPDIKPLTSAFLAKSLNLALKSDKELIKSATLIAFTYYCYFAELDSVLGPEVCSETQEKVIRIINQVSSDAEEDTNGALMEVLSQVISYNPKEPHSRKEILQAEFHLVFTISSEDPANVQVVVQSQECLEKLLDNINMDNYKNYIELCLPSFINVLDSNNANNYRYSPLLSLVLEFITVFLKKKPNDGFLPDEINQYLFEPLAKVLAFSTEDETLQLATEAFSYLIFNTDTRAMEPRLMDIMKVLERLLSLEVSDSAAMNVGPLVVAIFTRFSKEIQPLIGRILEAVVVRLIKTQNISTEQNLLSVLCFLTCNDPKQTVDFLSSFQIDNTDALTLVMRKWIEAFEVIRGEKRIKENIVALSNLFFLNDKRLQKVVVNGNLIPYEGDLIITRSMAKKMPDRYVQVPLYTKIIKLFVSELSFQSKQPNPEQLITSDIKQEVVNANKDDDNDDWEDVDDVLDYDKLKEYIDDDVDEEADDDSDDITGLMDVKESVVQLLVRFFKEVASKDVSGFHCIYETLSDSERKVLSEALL

B1: Kap114 (receptor, S. cerevisiae)
chain: T2 sequence
notes: also called Sc Kap114; source: E. coli, expressed as GST-Kap114, purified (Glutathione Sepharose 4B, on-column TEV cleavage, SEC)
B2: Nap1 α5/6mut (E194A/D201A/D205A) (natural protein, S. cerevisiae, UniProt P25293 1-417, looked up)
chain: MSDPIRTKPKSSMQIDNAPTPHNTPASVLNPSYLKNGNPVRAQAQEQDDKIGTINEEDILANQPLLLQSIQDRLGSLVGQDSGYVGGLPKNVKEKLLSLKTLQSELFEVEKEFQVEMFELENKFLQKYKPIWEQRSRIISGQEQPKPEQIAKGQEIVESLNETELLVDEEEKAQNDSEEEQVKGIPSFWLTALANLPIVAATITARDAEVLEYLQDIGLEYLTDGRPGFKLLFRFDSSANPFFTNDILAKTYFYQKELGYSGDFIYDHAEGAEISWKDNAHNVTVDLEMRKQRNKTTKQVRTIEKITPIESFFNFFDPPKIQNEDQDEELEEDLEERLALDYSIGEQLKDKLIPRAVDWFTGAALEFEFEEDEEEADEDEDEEEDDDHGLEDDDGESAEEQDDFAGRPEQAPECKQS
notes: also called mutant α5/6mut; source: E. coli BL21 gold, purified (Ni-NTA, TEV cleavage, HiTrap Q, Superdex S200)
B3: Nap1 core (residues 75–365), His tag removed (domain or fragment, S. cerevisiae, UniProt P25293 75-365, looked up)
chain: T1 chain
notes: Nap1 (nucleosome assembly protein 1), S. cerevisiae, core, residues 75–365; also called Nap1_(2) core; source: E. coli, purified (nickel-NTA, ion exchange, thrombin cleavage, SEC)
B4: Nap1 core (residues 75–365) (domain or fragment, S. cerevisiae, UniProt P25293 75-365, looked up)
chain: T1 chain
notes: Nap1 (nucleosome assembly protein 1), S. cerevisiae, core, residues 75–365; pET15b vector, gift from Karolin Luger; The His tag is said to be removed only for pull-down assays; also called His-Nap1 core; Nap1 core dimer; source: E. coli, purified (nickel-NTA, ion exchange, SEC)

Tests used:
Kap114 [1] = target: B1; test: SEC-MALS; equimolar mixture of Kap114, Nap1_(2), H2A-H2B and Ran^GTP; Assay buffer without glycerol; Nap1 counted as dimer
[2] = target: Nap1 FL (C200A, C249A, C272A) (S. cerevisiae) (UniProt P25293); test: as above
Kap114 [3] = target: B1; test: SEC-MALS; 1:1:1 mixture of Kap114, Nap1_(2) and H2A-H2B (80 µM each), no Ran^GTP; Assay buffer without glycerol; Nap1 counted as dimer
[4] = target: Nap1 FL (C200A, C249A, C272A) (S. cerevisiae) (UniProt P25293); test: as above
[5] = target: TBP (Saccharomyces cerevisiae) (UniProt P13393); settings: cited from earlier work
[6] = target: T1, Nap1 core (residues 75–365); test: AUC
[7] = target: B4; test: AUC; sedimentation velocity; Kap114 titrated into the Nap1 core dimer; isotherm with one-site model; 20 mM Tris-HCl pH 7.5, 150 mM NaCl, 2 mM MgCl2, 2 mM TCEP; settings: both partners purified
MBP-Kap114 = target: T2, MBP-Kap114; test: pull-down; MBP-Kap114 (WT or mutant; or MBP alone) 1 µM immobilized on amylose resin, equimolar Nap1_(2) ± H2A-H2B (1 or 2 µM) ± Ran^GTP; Assay Buffer (20 mM HEPES pH 7.4, 150 mM NaCl, 2 mM MgCl2, 10% glycerol, 2 mM DTT), 30 min at 4°C; Coomassie-stained SDS-PAGE; settings: both partners purified
Kap114 [8] = target: B1; test: AUC; sedimentation velocity c(s) of Kap114, Nap1_(2) core and Ran^GTP alone and in mixtures at indicated molar ratios; 20 mM Tris-HCl pH 7.5, 150 mM NaCl, 2 mM MgCl2, 2 mM TCEP; settings: both partners purified
[9] = target: the molecule itself; test: cryo-EM structure; Nap1 core dimer:H2A-H2B 1:2, then 1 molar ratio Kap114, 0.05% glutaraldehyde 1 min, SEC; no Ran^GTP; gave Nap1_(2), Kap114•H2A-H2B and two ternary assemblies

TBP (Saccharomyces cerevisiae), sequence (P13393 2-240): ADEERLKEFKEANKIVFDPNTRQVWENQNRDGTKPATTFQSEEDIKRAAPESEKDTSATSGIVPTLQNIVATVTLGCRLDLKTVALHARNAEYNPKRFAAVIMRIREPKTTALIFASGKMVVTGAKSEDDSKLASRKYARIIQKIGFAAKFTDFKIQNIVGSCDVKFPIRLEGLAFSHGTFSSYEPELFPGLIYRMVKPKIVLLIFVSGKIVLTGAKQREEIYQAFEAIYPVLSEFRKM

stoichiometry N (Kap114 [1]): 1
stoichiometry N [2]: 1
stoichiometry N (Kap114 [3]): 1
stoichiometry N [4]: 1
Molecule: Sc H2A-H2B (from UniProt P04911 2-124; P02293 5-131) (complex)

Molecule: Kap114 (from UniProt P53067)
Kd [5]: < 1 nM

Molecule: B1
Kd [6]: 1040 nM
stoichiometry N [7]: 1

Molecule: B2
binding result (MBP-Kap114): binds

Molecule: B3
binding result (MBP-Kap114): binds

Molecule: B4
binding result (Kap114 [8]): binds
binding result [9]: binds
